Paper PMC11045720

Assays:
[1] = biological target: Alcohol dehydrogenase from baker's yeast (baker's yeast) (UniProt P00330); assay: cross-linking; DSBU at 25:1 to 1000:1 molar excess on 1 mg/mL protein, 45 min at room temperature (20 °C), quenched with Tris HCl; read by denaturing mass photometry (5 min in 5.4 M urea) and SDS-PAGE
[2] = biological target: Alcohol dehydrogenase from baker's yeast (baker's yeast) (UniProt P00330); assay: mass photometry (native, nMP); samples diluted in their native buffer to 100-400 nM, then drop-diluted to 10-40 nM in a PBS droplet; room temperature (18 °C); triplicates
[3] = biological target: Human 20 S proteasome (human); assay: cross-linking; formaldehyde 0.05% to 1% (vol/vol) on 1 mg/mL protein, 20 min at room temperature; read by denaturing mass photometry
[4] = biological target: Human 20 S proteasome (human); assay: mass photometry (native, nMP); samples diluted in their native buffer to 100-400 nM, then drop-diluted to 10-40 nM in a PBS droplet; room temperature (18 °C); triplicates

## Alcohol dehydrogenase from baker's yeast (from UniProt P00330 1-348) (enzyme)
[1]
  stoichiometry N: 4
[2]
  percent of detected species that are monomers (nMP): 46%
  stoichiometry N: 4

## Human 20 S proteasome (complex)
[3]
  stoichiometry N: 28
[4]
  percent of detected species that are monomers (nMP): 51%
  stoichiometry N: 28
